Reference: patent US11306137B2, “Antibody binding agents that bind Acinetobactor and uses thereof” (priority 2015, dated 2022)
Entries after “also recorded” stand apart in the source; their conditions may differ.

Experiments:
A. baumannii HUMC1 [1] = test: Immunogold transmission electron microscopy; type: binding; conditions: 40,000× magnification
Procedure: Mid-log-growth A. baumannii cultures were washed twice incubated with primary antibody (200 μg/mL) at room temperature for 30 min, washed three times in PBS, and resuspended in 50 μL PBS. Goat anti-mouse IgG 20 nm Gold Conjugated (TedPella Inc.) was added to each tube at a final concentration of 0.8 μg/mL and incubated at room temperature for 30 min. Bacteria were washed, pelleted, and resuspended in 500 μL of half-strength Karnovsky's Fixative (2% paraformaldehyde and 2.5% gluteraldehyde in 0.1M phosphate buffer) for 2 hours at room temperature. Following incubation, the pellet was dislodged from the bottom of the tube using a bent stick and allowed to sit in fixative overnight. After overnight fixation, fixative was carefully aspirated off and 1 mL of PBS was carefully added to the tube in order to prevent agitation of the pellet. The pellet was then post-fixed in 1% Osmium Tetroxide for 1 hour and stained with 1% Uranyl Acetate overnight. The pellet was then put in 15% BSA for 2 hours and subsequently subjected to another treatment with the half-strength Karnovsky's Fixative to harden. Pellets were washed in water, dehydrated, embedded in Epon, sectioned, and placed on copper grids. Electron Micrographs were taken on a JEOL JEM-2100 Microscope operating at 80 kV.

A. baumannii HUMC1 [2] = test: Lethal bloodstream (i.v. tail-vein) infection model, survival; type: in vivo, mice; conditions: for protection against infection (survival): 100% lethal inoculum HUMC1 i.v., immediate treatment, FIG. 7A
A. baumannii HUMC1 [3] = test: Confocal immunofluorescence surface binding; conditions: FIG. 5
Procedure: To detect surface binding of A. baumannii by purified C8 MAb, mid-log-growth A. baumannii strains were washed twice, resuspended in PBS, stained with NucBlue Reagent (Life Technologies) for 30 min at 37° C., pelleted, and washed again in PBS. Primary antibody, either C8 MAb or Isotype Control IgG1 (R&D Systems, Product #MAB002), was added to 100 μL of bacteria to a final concentration of 100 μg/mL and incubated for 30 min at 37° C. Bacteria were washed twice and resuspended in secondary antibody goat anti-mouse IgG AlexaFluor647 (Life Technologies, Product #A21235) at a final concentration of 2 μg/mL for 20 min at 37° C. After washing twice with PBS, bacteria was resuspended in 50 μL PBS, and 10 μL drops were placed on slides and mounted with cover slips and nail polish. Images were taken using a Spinning Disc Confocal Microscope (Zeiss Axiolmager).

B1: C8: mouse IgG1-kappa monoclonal antibody from hybridoma 9.1C8 (ATCC PTA-122177); light chain SEQ ID NO:2, heavy chain SEQ ID NO:3 (antibody, listed as Mus musculus, V domains shown)
VH: EVQLQQSGPELVKPGASVKISCKASGYSFTGYTMNWVKQSHGKSLEWIGRINPYNGDSFYNQKFKGKATLTVDKSSNIAHMEFLSLTSEDSAVYYCGRSGDGPWFAYWGQGTLVTVSA
VL: LPLSLPVSLGDQASISCRSSQSIVHNNGNTYLEWYLQKPGQSPKLLIYKVSNRFSGVPDRFSGSGSGTDFTLKISRVEAEDLGVYYCFQGSHVPLTFGAGTKLEIKGSRS
physical binding site on the bacterial surface by electron microscopy (A. baumannii HUMC1 [1]): bound to the pili on the bacterial surface; also recorded: binding to the pili | protection against infection (survival) (A. baumannii HUMC1 [2]; high dose (approximately 150 μg)): 100% | protection against infection (survival) (A. baumannii HUMC1 [2]; low dose (approximately 50 μg)): 100% | survival, delayed treatment (A. baumannii HUMC1 [2]; i.v. infection, treated i.p. (50 μg) at 30 min post-infection, FIG. 7C): rescued from lethal infection | survival, delayed treatment (monotherapy) (A. baumannii HUMC1 [2]; i.v. infection, treated i.p. at 1 hr post-infection, C8 150 μg, colistin 0.0125 mg/kg, FIG. 7D): not all mice survived; also recorded: minimally improved survival; also recorded: too late | surface binding by immunofluorescent staining (A. baumannii HUMC1 [3]): confirmed diffuse surface binding
